From US9657279B2, “Biological systems for production of commercially valuable compounds” (priority 2007, dated 2017)

How the values were obtained:
S. cerevisiae W303a = assay: Methyl iodide toxicity assay in yeast; format: cell-based; details: W303a lab strain, OD600 at 24 hours of growth, commercially available CH3I added
From the text: (§1) FIG. 11A-D: Methyl iodide production in recombinant S. cerevisiae. FIG. 11A. CH3I production pathway. The B. maritima MHT is expressed with a N-terminal vacuole targeting tag. The […] MHT methylates iodide ions using SAM as a methyl donor. FIG. 11B, CH3I measured in culture headspace over time. Activity on glucose-grown cells is shown. FIG. 11C, CH3I yields in grams per liter of culture per day. Values for the culturable red algae E. muricata are taken from the literature. Yields from B. maritima MHT-expressing E. coli and S. cerevisiae are calculated by comparison to standard curves. FIG. 11D, CH3I toxicity in yeast. Exponential phase cultures were diluted to an OD600 of 0.05 and commercially available CH3I was added. OD600 was measured at 24 hours of growth. The W303a lab strain is shown in filled boxes, the DNA methylation-sensitive RAD50Δ mutant is shown in open boxes.
(§2) Individual colonies were inoculated in YP media with 2% glucose and grown overnight. Cultures were diluted to an OD600 of 0.05 and methyl iodide was added to the specified amount. […] OD600 was measured by spectrometry with YP media used as a blank. Each data point was performed in triplicate. The RAD50Δ mutant was obtained from the Saccharomyces Genome Deletion Project (Invitrogen).

RAD50Δ mutant = format: cell-based, S. cerevisiae; details: RAD50Δ mutant compared with W303a, OD600 at 24 hours
From the text: as §1, §2

S. cerevisiae W303 = assay: Methyl iodide production by vacuole-targeted MHT in yeast; format: cell-based; details: N-terminal carboxypeptidase Y tag versus cytosolic enzyme, vector pCM190
From the text: In one approach, for illustration and not limitation, the coding sequence of B. maritima methylchloride transferase (MCT) is synthesized and cloned into a high copy vector under the control of a tet-repressible CYC promoter (plasmid pCM190, Gari et al, 1997, Yeast 13:837-48.). The MCT coding sequence is fused to a N-terminal peptide domain from carboxypeptidase Y known to target pendant proteins to the yeast vacuole (amino acid sequence: […] (SEQ ID NO:1), Valls et al., 1990, J Cell Biol. 111:361-8.) This expression system is transformed into S. cerevisiae strain W303a. […] Cultures are grown at 30 degrees with 250 rpm shaking, and methyl iodide production assayed at specified intervals via GC-MS. […] Oven temperature is programmed from 50 degrees (1 min) to 60 degrees (10 degrees/min).
We fused a 16 amino acid vacuolar targeting tag ([…]) from yeast carboxypeptidase Y to the N-terminus of the B. maritima MCT and expressed the enzyme from the vector pCM190. […] We next expressed the cytosolic and vacuolar targeted enzymes in a VPS33A background, which is unable to form functional vacuoles.

E. coli [1] = tested on: E. coli
Description: Methyl halide production can be measured by gas chromatography. In the experiments described below an Agilent gas chromatography/mass spectrometry (GC/MS) system was used. Most often the “AIR.U” tune file, uses an ionization voltage of 1341. In some experiments an ionization voltage of about 1250 was used. A solvent delay of 0 was set and the scan parameters set to 15-100 MW. The injection port and column were preset to 50° C. The sample to be tested was mixed by shaking for a few seconds. 100 μL of the headspace gas was extracted with a gas-tight syringe. The sample gas was manually injected into the GCMS injection port. The GCMS program was started with the following settings: 1:00 at 50° C.; a ramp of 10° C. per min to 70° C. (the sample typically came off at ˜52° C.); 1:00 at 70° C. The column was then cleaned (ramp to 240° C. for 2 minutes). The sample peak was identified by extracting the GC peak corresponding to 50MW (−0.3, +0.7). This peak was integrated to produce the “GC 50MW” data.
For each strain a single colony was picked and grown overnight (10-14 hrs) in 20 mL of LB miller in a 30 mL glass test tube with aeration (a loose cap) at 37 C and 250 rpm shaking. The culture was spun down in a swinging bucket centrifuge for 5 min @3000×g. […]

E. coli [2] = details: library of 89 genes, 100 mM sodium halide salt, headspace GC-MS
Description: Methyl halide production was sampled by analyzing the headspace gas using GC-MS (Supplementary Information).
Bacteria carrying MHT expression vectors were inoculated from freshly streaked plates and grown overnight. Cells were diluted 100-fold into media containing 1 mM IPTG and 100 mM appropriate sodium halide salt. Culture tubes were sealed with a rubber stopper and grown at 37 degrees for 3 hours. Yeast carrying MHT expression vectors were streaked on uracil dropout plates from freezer stocks (15% glycerol) and grown for 48 hours. Individual colonies were inoculated into 2 mL of synthetic complete uracil dropout media and grown overnight at 30 degrees. Cultures were next inoculated into 100 mL fresh synthetic complete uracil dropout media and grown for 24 hours. […] 10 mL of this concentrated culture was aliquoted into 14 mL culture tubes and sealed with a rubber stopper. Cultures were grown at 30 degrees with 250 rpm shaking.

| Molecule | level up to which yeast were resistant to deleterious methylating effects of methyl iodide (S. cerevisiae W303a) [µg/mL] | sensitivity to methyl iodide (RAD50Δ mutant) | increase in methyl iodide production rate by targeting to the vacuole (S. cerevisiae W303) [%] | methyl bromide production (E. coli [1]; 165 mM NaBr, 100 uM IPTG, 1.5 hours, headspace GC/MS) | specificity of methyl halide production (E. coli [1]; methyl bromide versus methyl iodide) | methyl halide activity on chloride, bromide and iodide (E. coli [2]) |
| --- | --- | --- | --- | --- | --- | --- |
| CI [methyl iodide] | > 5000 | increased sensitivity |  |  |  |  |
| B. maritima: methyl halide transferase from Batis maritima, SEQ ID NO: 3 (protein, listed as Batis maritima) MSTVANIAPVFTGDCKTIPTPEECATFLYKVVNSGGWEKCWVEEVIPWDLGVPTPLVLHLVKNNALPNGKGLVPGCGGGYDVVAMANPERFMVGLDISENALKKARETFSTMPNSSCFSFVKEDVFTWRPEQPFDFIFDYVFFCAIDPKMRPAWGKAMYELLKPDGELITLMYPITNHEGGPPFSVSESEYEKVLVPLGFKQLSLEDYSDLAVEPRKGKEKLARWKKMNN |  |  | 50 | best | significant specificity for methyl bromide production | highest activity of all genes on each ion |
